Source: WO2016071355A1 (dated 2016)

Columns and labels:
[1] = molecular target: T1, soluble extracellular region of cynomolgus monkey CD38 antigen fused to a 6-His-tag (cynomolgus monkey, UniProt Q5VAN0 45-301); experiment: SPR
T1 construct: also called cynomolgus CD38

[2] = molecular target: T2, human CD38 peptide-Fc fusion F1 (human, UniProt P0DOX5 223-449 = IgG part); experiment: SPR, antibody immobilized, peptide-Fc injected at 1000 nM
[3] = molecular target: T3, human CD38 peptide-Fc fusion F2 (human, UniProt P0DOX5 223-449 = IgG part); experiment: as above
[4] = molecular target: T4, human CD38 peptide-Fc fusion F3 (human, UniProt P0DOX5 223-449 = IgG part); experiment: as above
T4 construct: doubtful; also called F3 construct

[5] = molecular target: T5, human CD38 peptide-Fc fusion F4 (human, UniProt P0DOX5 223-449 = IgG part); experiment: as above
T5 construct: doubtful

[6] = molecular target: T6, human CD38 peptide-Fc fusion F5 (human, UniProt P0DOX5 223-449 = IgG part); experiment: as above
[7] = molecular target: T7, human CD38 peptide-Fc fusion F6 (human, UniProt P0DOX5 195-449 = IgG part); experiment: as above
[8] = molecular target: T8, human CD38 peptide-Fc fusion F7 (human, UniProt P0DOX5 223-449 = IgG part); experiment: as above
[9] = molecular target: T9, human CD38 peptide-Fc fusion F8 (human, UniProt P0DOX5 223-449 = IgG part); experiment: as above
[10] = molecular target: T10, human CD38 peptide-Fc fusion F9 (human, UniProt P0DOX5 223-449 = IgG part); experiment: as above
[11] = molecular target: T11, human CD38 peptide-Fc fusion F10 (human, UniProt P0DOX5 223-449 = IgG part); experiment: as above
[12] = molecular target: T12, human CD38 peptide-Fc fusion F11 (human, UniProt P0DOX5 223-449 = IgG part); experiment: as above
[13] = molecular target: T13, human CD38 peptide-Fc fusion F12 (human, UniProt P0DOX5 223-449 = IgG part); experiment: as above
[14] = molecular target: T14, human CD38 peptide-Fc fusion F13 (human, UniProt P0DOX5 223-449 = IgG part); experiment: as above
[15] = molecular target: T15, human CD38 peptide-Fc fusion F14 (human, UniProt P0DOX5 223-449 = IgG part); experiment: as above
[16] = molecular target: T16, human CD38 peptide-Fc fusion F15 (human, UniProt P0DOX5 223-449 = IgG part); experiment: as above
[17] = molecular target: T17, human CD38 peptide-Fc fusion F16 (human, UniProt P0DOX5 223-449 = IgG part); experiment: as above
[18] = molecular target: T18, human CD38 peptide-Fc fusion F17 (human, UniProt P0DOX5 223-449 = IgG part); experiment: as above
[19] = molecular target: T19, human CD38 peptide-Fc fusion F18 (human, UniProt P0DOX5 223-449 = IgG part); experiment: as above
[20] = molecular target: T20, human CD38 peptide-Fc fusion F19 (human, UniProt P0DOX5 223-449 = IgG part); experiment: as above
[21] = molecular target: T21, human CD38 peptide-Fc fusion F20 (human, UniProt P0DOX5 223-449 = IgG part); experiment: as above
[22] = molecular target: T22, soluble extracellular region of human CD38 fused to a 6-His-tag (human, UniProt P28907 43-300); experiment: SPR, equilibrium response, antibody captured on protein G
T22 construct: also called human CD38 extracellular domain with a poly-histidine tag; human CD38 antigen

[23] = molecular target: T4, human CD38 peptide-Fc fusion F3; experiment: SPR
[24] = molecular target: T7, human CD38 peptide-Fc fusion F6; experiment: SPR
[25] = molecular target: T2, human CD38 peptide-Fc fusion F1; experiment: SPR, antibody immobilized, peptide-Fc injected at 15 nM and 200 nM
[26] = molecular target: T3, human CD38 peptide-Fc fusion F2; experiment: as above
[27] = molecular target: T4, human CD38 peptide-Fc fusion F3; experiment: as above
[28] = molecular target: T5, human CD38 peptide-Fc fusion F4; experiment: as above
[29] = molecular target: T6, human CD38 peptide-Fc fusion F5; experiment: as above
[30] = molecular target: T8, human CD38 peptide-Fc fusion F7; experiment: as above
[31] = molecular target: T9, human CD38 peptide-Fc fusion F8; experiment: as above
[32] = molecular target: T10, human CD38 peptide-Fc fusion F9; experiment: as above
[33] = molecular target: T11, human CD38 peptide-Fc fusion F10; experiment: as above
[34] = molecular target: T12, human CD38 peptide-Fc fusion F11; experiment: as above
[35] = molecular target: T13, human CD38 peptide-Fc fusion F12; experiment: as above
[36] = molecular target: T14, human CD38 peptide-Fc fusion F13; experiment: as above
[37] = molecular target: T15, human CD38 peptide-Fc fusion F14; experiment: as above
[38] = molecular target: T16, human CD38 peptide-Fc fusion F15; experiment: as above
[39] = molecular target: T17, human CD38 peptide-Fc fusion F16; experiment: as above
[40] = molecular target: T18, human CD38 peptide-Fc fusion F17; experiment: as above
[41] = molecular target: T19, human CD38 peptide-Fc fusion F18; experiment: as above
[42] = molecular target: T20, human CD38 peptide-Fc fusion F19; experiment: as above
[43] = molecular target: T21, human CD38 peptide-Fc fusion F20; experiment: as above

B1: human 767 antibody (antibody, V domains shown)
VH: QVQLVESGGGLVQPGGSLRLSCAASGFTFSSYWMSWVRQAPGKGLEWVANIKQDGSEKYYVDSVKGRFTISRDNAKNSLYLQMNSLRAEDTAVYYCAREGRTGYFDYWGQGTLVTVSS
VL: QSVLTQPPSASGTPGQRVTISCSGSTSNIGTNYVYWYQQLPGTAPKLLIYRNDQRPSGVPDRFSGSKSGTSASLAISGLRSEDEADYYCAAWDDSRSGVYAFGTGTKVTVLR
notes: Human IgG1
With B1 the Kd [1] was ~1.2 µM, the binding result [2] was “no binding (tested: 1000 nM)” and the binding result [3] was “no binding (tested: 1000 nM)”. B1: binds [4]; no binding (tested: 1000 nM) [5]; no binding (tested: 1000 nM) [6]. B1: no binding (tested: 1000 nM) [7]; no binding (tested: 1000 nM) [8]; no binding (tested: 1000 nM) [9]. B1: no binding (tested: 1000 nM) [10]; no binding (tested: 1000 nM) [11]; no binding (tested: 1000 nM) [12]. B1: no binding (tested: 1000 nM) [13]; no binding (tested: 1000 nM) [14]; no binding (tested: 1000 nM) [15]. B1: no binding (tested: 1000 nM) [16]; no binding (tested: 1000 nM) [17]; no binding (tested: 1000 nM) [18]. B1: no binding (tested: 1000 nM) [19]; no binding (tested: 1000 nM) [20]; no binding (tested: 1000 nM) [21]. The Kd [22] was ~0.3 µM.

B2: SAR650984 antibody (antibody, human IgG1, kappa, V domains shown)
VH: QVQLVQSGAEVAKPGTSVKLSCKASGYTFTDYWMQWVKQRPGQGLEWIGTIYPGDGDTGYAQKFQGKATLTADKSSKTVYMHLSSLASEDSAVYYCARGDYYGSNSLDYWGQGTSVTVSS
VL: DIVMTQSHLSMSTSLGDPVSITCKASQDVSTVVAWYQQKPGQSPRRLIYSASYRYIGVPDRFTGSGAGTDFTFTISSVQAEDLAVYYCQQHYSPPYTFGGGTKLEIKR
notes: also called humanized SAR650984 antibody
B2: no binding [23]; binds [24].

B3: humanized 9G7 antibody (best-fit version) of Example 10 (antibody, human IgG1, kappa, V domains shown)
VH: QVTLKESGPTLVKPTQTLTLTCTFSGLSLSTSGKGVGWIRQPPGKALEWLAHIWWDDDKRYNPALKSRLTITKDTSKNQVVLTMTNMDPVDTATYYCARIELGRSYVMDYWGQGTLVTVSS
VL: DIQMTQSPSSLSASVGDRVTITCQASQDVITSVAWFQQKPGKAPKLLIYSASYRYTGVPSRFSGSGSGTDFTFTISSLQPEDIATYYCQQHYTIPLTFGQGTKLEIKR
notes: also called h9G7
B3: no binding (tested: 200 nM) [25]; no binding (tested: 200 nM) [26]; no binding (tested: 200 nM) [27]. B3: no binding (tested: 200 nM) [28]; no binding (tested: 200 nM) [29]; no binding (tested: 200 nM) [30]. B3: no binding (tested: 200 nM) [31]; no binding (tested: 200 nM) [32]; no binding (tested: 200 nM) [33]. B3: no binding (tested: 200 nM) [34]; no binding (tested: 200 nM) [35]; no binding (tested: 200 nM) [36]. B3: no binding (tested: 200 nM) [37]; no binding (tested: 200 nM) [38]; no binding (tested: 200 nM) [39]. B3: no binding (tested: 200 nM) [40]; no binding (tested: 200 nM) [41]; no binding (tested: 200 nM) [42]. B3: no binding (tested: 200 nM) [43].
